Results: publication PMC8879858 (Nature plants, 2021)
Where no end group is shown, it is not given here. fluorescein = fluorescein label covalently attached to the C-terminal cysteine

Target: T1, cpSRP43-FL (Arabidopsis thaliana, UniProt O22265 57-373)
T1 sequence (looked up): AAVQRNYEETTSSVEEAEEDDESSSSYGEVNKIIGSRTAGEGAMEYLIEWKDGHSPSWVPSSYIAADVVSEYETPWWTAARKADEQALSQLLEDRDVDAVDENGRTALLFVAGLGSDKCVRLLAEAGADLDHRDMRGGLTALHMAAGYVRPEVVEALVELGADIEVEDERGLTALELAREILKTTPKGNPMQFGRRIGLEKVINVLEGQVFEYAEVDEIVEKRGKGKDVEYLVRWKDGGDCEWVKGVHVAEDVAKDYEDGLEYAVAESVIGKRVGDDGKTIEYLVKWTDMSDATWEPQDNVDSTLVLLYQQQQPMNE
Assay: fluorescence polarisation

- binding result: binds
Binder: QKQKAPPGTARRKRKAC(fluorescein) [fluorescein-labeled cpSRP54M peptide]
